In paper PMC8514532 (2021):

Biological target: PopP2 (149-488), AVI-tagged and biotinylated, the 'WT' of the BLI assay (Ralstonia solanacearum, UniProt Q8Y125 149-488)
Test: BLI

B1: WRKY DNA-binding domain of the Arabidopsis RRS1-R immune receptor (domain or fragment)
chain: SESKVKKVVSIPAIDEGDLWTWRKYGQKDILGSRFPRGYYRCAYKFTHGCKATKQVQRSETDSNMLAITYLSEHNHPRPT
Kd: 13 nM
